# According to the RNAGym collection of RNA variant scans (doi:10.1073/pnas.2313332121):
# Fewer inactive variants are shown than the library holds.
# B1: TPR 5TU (parent)
# chain: GGAUCUUCUCGAUCUAACAAAAAAGACAAAUCUGCCACAAAGCUUGAGAGCAUCUUCGGAUGCAGAGGCGGCAGCCUUCGGUGGCGCGAUAGCGCCAACGUUCUCAACUAUGACACGCAAAACGCGUGCUCCGUUGAAUGGAGUUUAUCAUG
# Variants of: B1
# Assay: polymerase ribozyme fitness, log enrichment relative to wild type (log ratio); higher = more active; in vitro selection for triplet polymerase activity
# Outline: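 PCR was used to build mutant libraries for each subunit of a heterodimeric triplet polymerase ribozyme, which were then transcribed. A single in vitro selection round, in triplicate, used a frozen incubation at −7 °C and recovered extended constructs by gel excision, streptavidin beads and RT-PCR. Fitness is the logarithm of genotype enrichment relative to wild-type enrichment, averaged over replicates with inverse-variance weights. The logarithm is base 2, and after Illumina sequencing only genotypes with ≥10 input reads and ≥1 read per output were kept.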
row,Variant,polymerase ribozyme fitness (log ratio)
1,A24G A37U A115G U130C U135A A150U,≤ -4.2
2,A39U C69U C95U C129G,≤ -4.2
3,A17U C54A,-1.45
4,A22U U55A A66C U77A C87A,≤ -4.2
5,A122G G124A U127A,-3.53
6,U9C A12C C57U C63U G74C A119G U146G,≤ -4.2
7,C36G G83U C125A G141C U145A,-4.09
8,A28C G34A C38G C72U C76A C96G U151A,≤ -4.2
9,A52C G92U G152U,-3.32
10,A106C G152U,-2.57
11,C85U G88A A98U,-3.79
12,C8U U33A A37C G50A A60U C72A G86A U90A A138G U151G,≤ -4.2
13,C43G G94A G133U A137U,-4.11
14,C18U U55A,-1.49
15,C51U C96G U144A,-1.45
16,G48A C85A A89U A98U A113G G117A,≤ -4.2
17,U6A U9G C35G A60G C69G G88C C96A,≤ -4.2
18,A97U U139A U144A,-4.08
19,G46U C85G,-1.84
20,U31A U144A,0.137
21,A30G U33A U55A A91C C132U A142U,≤ -4.2

row,Variant,polymerase ribozyme fitness (log ratio)
1,C14G C87U C149A,≤ -4.2
2,U82G G141U,1.45
3,C14G A22C A52U C96A A97U G117U,≤ -4.2
4,U13C C18A A40C U53A G83A,-2.56
5,A40G A47G U144G,-2.26
6,G59A G84U G92C C95G G124C,-2.69
7,A28C C35U G124A G141U,≤ -4.2
8,C93U U148A,-3.85
9,G74C A150C,≤ -4.2
10,C36G A97G,-3.56
11,A29C C38G G65U U77A G81C A137G,≤ -4.2
12,A20U C93U G126A,-1.5
13,A20U A40U C69A,-2.77
14,G46A C85A A150C,≤ -4.2
15,A97C,0.773
16,C10U U44A U102G A119C A121G A137C G143A,≤ -4.2
17,A37C A60C C69U C85A U146G,-3.76
18,A41C G92U A98G C123G G133C U134A G152U,≤ -4.2
19,A52C A89U C96G G141U,-1.47
20,G68A G80A G86U U90G A91G G136A A142G,≤ -4.2
21,U56G C93U,-3.02

row,Variant,polymerase ribozyme fitness (log ratio)
1,G42C A47C C57U G81C C95A,≤ -4.2
2,A29C A40G C123A U127A,≤ -4.2
3,A26C C38U G86U U144G,-3.75
4,A19G G59U C76A C96U,-1.25
5,U33C A49C C57U U145A U151A,≤ -4.2
6,A16G A17U A41U C93U C125U U134G,-4.05
7,A16G U144G,0.162
8,C76U U82G C87U,0.25
9,A21G C96G,0.474
10,A29U G86A A97G A142U G143A,≤ -4.2
11,A20U C54A,-2.02
12,U56A A115C,-0.798
13,U9C A37G G42C A73U G92C C103U,≤ -4.2
14,A30C C76A G83C,≤ -4.2
15,A30G C93A,-3.95
16,C27U A29C G58C C85A U145A,≤ -4.2
17,A22C C51U G84U,-2.78
18,A17U A41C G94C,-1.13
19,A41C U44A G84A U146G,≤ -4.2
20,U9A C14U A49U C51U G86U A89U,≤ -4.2
21,A52G U56G G83A,-2.85

row,Variant,polymerase ribozyme fitness (log ratio)
1,C5U U13A C57G G141U,-1.34
2,U55G G84A C99A A120G C131U,-2.08
3,A39U A91C G141C U148G,≤ -4.2
4,A26C A47G C63A A91C A97U A98G A138U,≤ -4.2
5,A16U G83C C99A,-3.97
6,C35G G84A U104G U109G G140U,≤ -4.2
7,U7C C18U U31A G81A G84U,-3.99
8,A49U A91G,≤ -4.2
9,U56A G86A,-1.16
10,A16G C32U C72A C76U C85G A107U,≤ -4.2
11,A29G G58C A73U G92C A98G C125A,≤ -4.2
12,C14U C76A C87U,-3.49
13,A47C G48C G74C U78G G143U,≤ -4.2
14,A47C G59A C72U G81C A89G G128C U134C,≤ -4.2
15,A89G A122C,-1.77
16,C18U C27U A28C G74U G100U U144G G152C,≤ -4.2
17,C79A U82A C96A A107U U139A,≤ -4.2
18,C8A U55A G84U C85A,≤ -4.2
19,A52C A60C C79U C93A G152U,≤ -4.2
20,A20C G86A,-2.24
21,A17G C54G,-1.5
